pEC50: −log10 of the molar value. Read-outs that look alike come from different tables or passages of the source.
How the values were obtained:
Test in all cases: ELISA, antigen captured by anti-His antibody on plate, HRP anti-IgG Fc detection
[1] = biological target: Human VEGF121/VEGF-A protein (human VEGF 121 isoform) with 6-His tag (human) (UniProt P15692)
[2] = biological target: Human VEGF121/VEGF-A protein (human VEGF 121 isoform) with 6-His tag (human) (UniProt P15692); remark: listed apart in the source
[3] = biological target: Human VEGF121/VEGF-A protein (human VEGF 121 isoform) with 6-His tag (human) (UniProt P15692); remark: listed apart in the source
[4] = biological target: Human VEGF121/VEGF-A protein (human VEGF 121 isoform) with 6-His tag (human) (UniProt P15692); remark: listed apart in the source

Chain of Aflibercept (VEGFR-Fc) (Fc fusion) (chain): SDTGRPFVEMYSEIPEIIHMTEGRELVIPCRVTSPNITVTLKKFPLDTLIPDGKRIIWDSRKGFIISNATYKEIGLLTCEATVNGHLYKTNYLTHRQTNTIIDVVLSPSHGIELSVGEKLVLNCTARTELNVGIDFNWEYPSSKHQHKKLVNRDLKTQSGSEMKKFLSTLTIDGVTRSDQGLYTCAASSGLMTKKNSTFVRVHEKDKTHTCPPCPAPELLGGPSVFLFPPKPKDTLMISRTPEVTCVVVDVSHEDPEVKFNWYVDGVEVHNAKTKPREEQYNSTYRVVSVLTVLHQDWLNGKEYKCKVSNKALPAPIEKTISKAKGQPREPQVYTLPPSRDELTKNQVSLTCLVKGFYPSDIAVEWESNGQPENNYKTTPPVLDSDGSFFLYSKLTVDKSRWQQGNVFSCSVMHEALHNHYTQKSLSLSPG
Chain of Human VEGF121/VEGF-A protein (human VEGF 121 isoform) with 6-His tag (human) (P15692 other isoform, or with tags, fused parts or gaps limits assumed): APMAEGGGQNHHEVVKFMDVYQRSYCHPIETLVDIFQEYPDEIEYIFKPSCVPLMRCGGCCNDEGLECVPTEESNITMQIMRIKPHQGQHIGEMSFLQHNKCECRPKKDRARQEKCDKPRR

**Q.** With Aflibercept (VEGFR-Fc) (Fc fusion) as the substance, how does the pEC50 [1] read?
**A.** Its pEC50 is 7.98.

**Q.** And the pEC50 [2]?
**A.** The pEC50 was 7.91.

**Q.** What about the pEC50 [3] of the same substance?
**A.** Its pEC50 is 7.82.

**Q.** What about the pEC50 [4] of the same substance?
**A.** Its pEC50 is 7.67.
